From US5576295A, “Agent for suppressing the motor activity of gastrointestinal tracts” (Nisshin Flour Milling Co., Ltd., priority 1993, dated 1996)

Columns and labels:
male BALB/c mice = test: Intraperitoneal administration to mice, observation of appearance; assay type: in vivo; details: 10 mg/kg intraperitoneally, male BALB/c mice (6 weeks age)
[1] = tested on: motor activity of gastrointestinal tracts; test: Motor activity of gastrointestinal tracts in the post-feed period in dogs sutured with strain gauge transducers; assay type: in vivo
Experimental: An experiment was performed as described below in order to examine the action of glicentin on a motility of gastrointestinal tracts.
Six hybrid dogs weighing 16-18 kg were sutured with strain gauge transducers (manufactured by Star Medical, F121S) at a site of the gastric antrum 4 cm from the pyloric ring, a site of the duodenum for the main incurrent pancreatic duct and a site of the jejunum 10 cm from the Treitz's ligamentum, respectively, to measure the contractile force intensity of the circular muscle. Recovery period for the suture was 2 weeks.
Three of the 6 dogs were intravenously given over 1 hour 15 ml of a physiological saline solution in which 400 pmol of glicentin had been dissolved per kg of bodyweight. The remaining three received an aqueous physiological solution containing no glicentin in the same way as above as a control for comparison. The dogs were fed on 15 g of a solid diet (SD®, manufactured by Oriental Yeast K.K.) and 15 g of Vitaone® (manufactured by Nihon Pet Food K.K. and Kyodo Shiryo K.K.) per kg of bodyweight simultaneously with the intravenous administration.
Then, the motor activity of gastrointestinal tracts and length of the post-feed period were measured. Intensity of the contraction in the post-feed period was integrated for the two-hour measurements and evaluated in comparison with the mean level of the signal peak in phase 3 motor activity of the gastrointestinal tracts in hunger and taken as a motor index.

[2] = 400 pmol/kg i.v. over 1 hour, post-feed contraction integrated over two hours relative to phase 3 peak in hunger, average ± standard error
[3] = 400 pmol/kg i.v. over 1 hour, versus control

B1: Glicentin: One of enteroglucagons, a peptide comprising 69 amino acid residues; human glicentin (SEQ ID NO: 1) prepared by genetic engineering (protein)
chain: RSLQDTEEKSRSFSASQADPLSDPDQMNEDKRHSQGTFTSDYSKYLDSRRAQDFVQWLMNTKRNRNNIA
Male BALB/c mice
  Change in appearance: no change in appearance is observed
[1]; 400 pmol/kg glicentin intravenously over 1 hour, fed simultaneously, average ± standard error
  Length of post-feed period: 13.6 ± 1.0 h
[1]; [2]
  Motor index, duodenum: 0.675 ± 0.4
  Motor index, gastric antrum: 0.878 ± 0.1
  Motor index, jejunum: 1.087 ± 0.2
[1]; [3]
  Influence upon the length of the post-feed period (in words): no influence upon the length of the post-feed period
  Post-feed motility in the vestibulum of stomach (in words): inhibited the post-feed motility in the vestibulum of stomach
